# Measurements from a protein production outcome set (Wang et al. 2014).
# Experiment: label from the status in PepcDB records
# 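Further: failed if final PepcDB status was selected cloned or expressed and not failed if soluble or beyond.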
row,Sequence,protein production
1,MSEPVQLRQHGNAAVAMPLDALLAARTVWRAGQGRATVNGGESTGHAALDALLPDGGWPRRALTELLLPAHGIGEIALLLPTLARMTARGSRVVLVAPPFIPYAPAWQAGGVVLEHLEVVQAEPRAALWAFEQCLRSGACAAVLGWPQTGDARALRRLQVAADSGNCCAFALRDRRHAVNASPAALRLEFLPERDAWQVRKCRGGQVPSQPLRLAH,failed
2,MSEQKAPIIVKRIKKTSGGHHGGAWKIAYADFVTAMMAFFLLMWLLGSTTRGDLEGIAEYFKTPLKVAMQGGTGSGDSSSVIKGGGADLTRKNGQIKKGEVDADRKSYNLKAAQAELERLETAKLKQLKQRLEAAIDRNPTLKQFKRQLLIDITSEGLRIQIVDEQNRPMFNLASAELQPYTKVILHEIAQVLNDVENRISLSGHTDARPYANGERGYSNWELSADRANASRRELIVGGMSEAKMLRVVGLASSVPFTQAKPFDPVNRRISIIVLNKRTEEAITKEASGAEVTDQNGASDALDRRAPPSDVAAPAAAAK,failed
3,MSEQRQDKNLLSEPHKTESDEIEIDLVDIFRKIIAIRRKLYKAIGVGFIIGMIVAVSIPKQYTVKVTLSPEMGSSKGGNGLAGLAASFLGSSATTGEVSDALNASLSSDIVSSTPFLLELLDMKVALSDERTDITLMDYLDRQSSPWWNYVIGLPGMVIGGVKSLFNSDDNDNSLNKVKSGTIELTKEEGIKVNVLKKNISASVDKKTAITSVSVTLQDPKVTAVVADSVVHKLQECIVGYRISKAEEDCIYLEKLYKERQQEYYVAQKKYADYVDTHDNLILQSVRAEQERLQNDMNLAYQVYSQVANQLQVARAKVQEEKPVFAVIEPAVVPQHASSIGLRIYVLLFIFLSVCYTISWNLLGKKIRYILKGSKENQQ,failed
4,MSERAIAHLGPVGTYAEMAALRFQAWLTQQDQQPSRLLACRSIPATLQTLADGAVDYAVVPVENSVEGSVAATLDSLWQLPQLSIQRALILPIAHALISFESDRTAIRQVLSHPQALAQCQQWLQRHLPQAELIPANSTTEALQDLERHPQRAVIASTRAAELYQMPIQSFPINDSPDNRTRFWVISRSPTPGGACTSLNFSLDANVPGALVKPLQILADRRINLSRIESRPTKRSLGEYLFFLDLEADLRDPAIAAAVQAVADCTEQLRVLGSYDSLDFTQSVLVPAQAR,failed
5,MSERKINDEPKSMLLLQRGEEFGKVNNGSKNRAFSSFTKFKIPSQFKTNSSITSFSNRREDIREPNSNSLFSMYNNDVLLKYDTTEVALATTNMFTHTVWNNKSEEIISYGYGSHVSFSCFIGFHY,failed
6,MSERNPILITGAAGEVGGVSRTTVDMLLEQGHPVRAFVRQDDERAHALRQAGAEVFVGDLLTIADVSAALKGVRRIYFSMSLSPYYTDAVSLMAAAARAQGDIEVFVNISEYEQSFMTFEKMTAPEEERRAWLGGLVANWSPQQRAHWVAEQVLDWSGLPTVNIRAAMFVENPLMTWLALEPLANGELRLPFGHHRLAPIAGYDVAELCVKILADPAPHISKSYDLNGPELKDMHGFAEDYAAALGRQVTYVPEDVETWNETYVDTVLGALPHTAEHLKTLTRLMGGGGYRGVTDQLETLLGRPPKTVRWALENHPRIRKLASA,failed
7,MSERVCAVIVTYNRKALLRECLKAVLSQTRPPDHVLVVDNASTDGTPEMLQEEFPQVEVLRLPENQGGAGGFHEGMKRAYEQGVDWLWLMDDDTIPKAKALEALLEAARLPLDPRPRVLASRQLLPNGLPHPTTAFVNPTDPRHPFLWLRLRPRYRPIRWALFTSVLLHRSLVEEHGLPHKAFFIWEDDLEYTARALRRGLGLQVRDSEVIHKSASKPYISATTGENRLFYGVRNRIWVLRSPAFGPLGKAFLALQLLFGLLTYLAFHPSQKSLQEIGRALRAGLTTSPCLEHHHHHH,failed
8,MSESCILFFVKYPEPGKVKTRLGEVVGNDKAAMLYRHFVQDMLQGLARLHADLHICYVPGDADLPEKFKAWLGPQHMFAAQQGLDLGERMKHAMQKAFDDGYDRVVLMGSDIPDYPCELVQKALNDLQHYDAAIGPAFDGGYYLIGFRKDSFCPDVFDGIRWGEADVYQPTVEKMRRARLEVLQLPDWNDVDTVWDLNVLYRTNKNSSFRRSSTYALLRENDALIRQYDIDLPGMAPVEKE,not failed
9,MSESNISGPLAGEYRDLAVYGRLATVTMIWGGTFVAGRYLAGGLSPLLAASLRFLLASLALLGFMAVARIPLVRPSLRQFGQLALLGFFGIFFYNLCFFLGLEQVKASRASLIVALNPAVIALASWALFKERLGRRKLLGIALCLCGAALVICSRDPSALAAQAGSWQGDLLILGCVLGWGVYSLFSRGLNHSLGSLQTVTCSILLGTLMLCAATLIRGEFDLQAVARLNLAQGLSLLYLGVLGSALAYIWYYDGLRRIGATRCGVFIALNPLTAVILGALVLGEQLSPVMGLGGALILGGIYQCNKPLAGGAKKAIL,failed
10,MSETELRKRQAQFTRELHGDDIGKKTGLSALMSKNNSAQKEAVQKYLRNWDGRTDKDAEERRLEDYNEATHSYYNVVTDFYEYGWGSSFHFSRFYKGESFAASIARHEHYLAYKAGIQRGDLVLDVGCGVGGPAREIARFTGCNVIGLNNNDYQIAKAKYYAKKYNLSDQMDFVKGDFMKMDFEENTFDKVYAIEATCHAPKLEGVYSEIYKVLKPGGTFAVYEWVMTDKYDENNPEHRKIAYEIELGDGIPKMFHVDVARKALKNCGFEVLVSEDLADNDDEIPWYYPLTGEWKYVQNLANLATFFRTSYLGRQFTTAMVTVMEKLGLAPEGSKEVTAALENAAVGLVAGGKSKLFTPMMLFVARKPENAETPSQTSQEATQ,failed
11,MSETLAVVRASRPNFLLLAPLCAGLGLAVAWQQGQAPELLHTFLVFLGAVLAHAAVNLLNEYDDFRSGLDMITERTPFSGGSGALPEVPTAARRVLWAGLGTLAVVVTIGLYFLWLRGLPLLVLGAAGVVLVLTYTRWITRSPLLCLLAPGMGFGPIMVLGTVIALGASIDTSALLASLVALLMVSELLLINQIPDAEADRAIGRRHLVITLGPEKAAHLVAGLLLASYGVIVAGMVSGYLAMTSLIALAPLPAAVWISLRLPRVLAMPDQLNRVLGANVAVLLSTLALLVTGLSL,failed
12,MSEVSVLLLAVILDLLIGEPPHRLHPVVWMGSAVEWMRNILGNSRISGIILTIAVAAPFTLPLFLINHLQDPLNLIISSILLSAVISIRMLVTSALEVGGSLKEDIEDARRKLSMLVSRDTTSLSDEQITSAAIETLTENITDSVTAPIFYFILLGLPGAFLYRVVNTLDAMVGYLDSENRDIGWFPARLDDILNYIPSRITGVLMVPAALLLGMNWRGSFRILLRDARRTPSPNSGFTMAAAAGALSVQLEKPGVYVLGDPCDGLDNEKLLDAVKLSSLTLILFTLAAAGVMLVIP,failed
13,MSEYLHIIIWFFLIEALSFISVPFIRSAGNRLADGGYSVSRALGIMLVTYLSWIFSYILGFSFTAVLIAFFLLCSVSIFLYRKQKFFPGRKVLVVNELVFASGFFFFLLVRTYLPEIYRHEKFMDFAFLNAVIRASSFPPQDPWFAGGLMDFYYYFGYLSVAVFGKLSAVKPSILFNLAVALTFALSLNAFFGMGYNLTRGKIRYGILTAVFGMLLGNLQGLIEFVSVYIRHEQALGGYYWSSSRVIPFTINEFPYFSFIHGDLHSHMLAIPFQLLVLAFLLNMHFRKNEDSIFENSLALLMFSMSLGFLFPFNSWDFPVYFGLAFLVIFAFYCGDYVHNRNLFAAVAKFSNSMIFISIFSFLPYLLFYLDFNPQAAGGFDFVLPELRTETDRFLILFGLFLFLVFSFLITRLDSRRKIVFFVLLAGVSALLSKAWSIPLLAVLLPVFVFSLLLFLKDIPERSASGFVYLLISAASFIALLCEVIFLDDPISGEFARMNTVFKFYMHLWIFLAISAAYSYYDLNSHYAARSGNRKTLKQFVKKGWSVILVILIICCAIFPAVSTVTRIKEMNAEPSLDGMEYMRELDRGDYNAIRWMQANIKGSPVILETSEDDSSYSYACRVSSNTGIPAVIGWARHERFWGRDHEEVKKRIGDVSLIYSTGSEEEAIELIEKYNVTYVYIGTLERQVYDVNTKKFENKAYFEPVYEGSATIYKLKKKP,failed
14,MSFKDLREFIDHLEQKGRLKRITHPVDPAYEMTEISDRTLRAGGPALLFENPIGYNVPVLTNLFGTPERVAIGMGREDVKELREVGKLLAYLKEPEPPKGFKDALEKLPVFKQVLNMPAKRLRKAPCQDIVWQGDEVDLDKIPVMSCWAEDVAPLLTWGLTVTKGPNKKRQNLGIYRQQKIAKNKIIMRWLAHRGGALDLRDWMETNPGKPFPVSVAFGADPATILGAVTPVPDTLSEYAFAGLLRGSKTEVVKSISNDLEVPASAEIVMEGYIDPNEFADEGPYGDHTGYYNEKEKHHVFTITHITMRKDPIYHSTYTGRPPDEPAVLGVALNEVFVPILQKQFPEIEDFYLPPEGCSYRMAVVTMKKQYPGHAKRVMMGVWSFLRQFMYTKFVIVCDESVNARDWNDVVKAMTEHMDPVRDTLMIDNTPIDSLDFASPVVGLGSKMGLDATIKWDAELATRPQISKQDSKVITEADLESLKQQRPEIIDIYLPPTTNNRFAVVTMKKDQAGQSQALMEYLWDFFAQYTDNKFVILCDEDVNARDWNDIIWAVTTRMDPDRDTTRVSGKAESSSKLGLDATNKFESEVTREWGTPIKKDPKLVAKVDEIWDQLGIL,failed
15,MSFLVLLLAVLIEKFSALRQRVQRDEPWLNAFARREASPRTAKRPWLTLALLILVPVLLLQLALTIIGSVAYGWLVLPIHLLVLIYSLGRVDLIAVLGPFRDACRRGDAQAAVHVAQRDMRVEADNGEQLLQGVQGYMLWQAFQSFFAVIFWYFVLGPVAALAYRLLALAAEHGKTPPLVERAGQLRHAFDWVPVRLLAASFALVGNFVAVSRVMLHELLNWNISAAQLITRVGCAASEVPPPVIGTQGVTSLDMLWELLVRAAIVWYAGFALWTLLR,failed
16,MSFNTIIDWNSCTAEQQRQLLMRPAISASESITRTVNDILDNVKARGDEALREYSAKFDKTTVTALKVSAEEIAAASERLSDELKQAMAVAVKNIETFHTAQKLPPVDVETQPGVRCQQVTRPVASVGLYIPGGSAPLFSTVLMLATPASIAGCKKVVLCSPPPIADEILYAAQLCGVQDVFNVGGAQAIAALAFGTESVPKVDKIFGPGNAFVTEAKRQVSQRLDGAAIDMPAGPSEVLVIADSGATPDFVASDLLSQAEHGPDSQVILLTPAADMARRVAEAVERQLAELPRAETARQALNASRLIVTKDLAQCVEISNQYGPEHLIIQTRNARELVDSITSAGSVFLGDWSPESAGDYASGTNHVLPTYGYTATCSSLGLADFQKRMTVQELSKEGFSALASTIETLAAAERLTAHKNAVTLRVNALKEQA,not failed
17,MSFRKVEKKPTEMGRNMTHEKSDSDSDNEGAPMTVGGYTEFVARSDSDWDEPVYSGKARSNYNLTGTAKGTGPINSFSRKHFPNY,failed
18,MSGAVPETPYHQRWLAFPDAVSSYRPLESRLAGTSRATADNRTPCTGRLGTPRVFLMATDDVSKAYSSPTFDAEALLGTVISAEDPDRVLIEPWATGVDGVILDVGSGTGRWTGHLASLGHQIEGLEPATRLVELARQTHPSVTFHHGTITDLSDSPKRWAGLLAWYSLIHMGPGELPDALVALRMAVEDGGGLLMSFFSGPSLEPMYHPVATAYRWPLPELAQALETAGFQVTSSHWDPRFPHAYLTAEASKQNLALEHHHHHH,failed
